Results from PMC6077723 (Proceedings of the National Academy of Sciences of the …, 2018).

How the values were obtained:
[1] = molecular target: MBP-HIGD1A chimera (hypoxia-inducible domain family member 1A with an N-terminal maltose binding protein tag) (human) (UniProt Q9Y241); test: ITC
wild-type cytochrome c = wild-type cytochrome c (human, UniProt P99999 1-105); test: ITC
wild-type cytochrome c, sequence (P99999 whole entry): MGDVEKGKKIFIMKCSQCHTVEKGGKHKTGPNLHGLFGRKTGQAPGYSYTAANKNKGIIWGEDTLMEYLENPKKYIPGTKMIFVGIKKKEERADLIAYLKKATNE

Row | stoichiometry N [1] | binding result (wild-type cytochrome c) | Molecule
1 | 1 | – | Y97pCMF cytochrome c (phosphomimetic mutant) (from UniProt P99999 1-105) (natural protein)
2 | – | binds | MSTDTGVSLPSYEEDQGSKLIRKAKE (domain or fragment, human, UniProt Q9Y241 1-26, looked up) [N-terminal domain of HIGD1A (HIGD1A 1-26)]
